{"source": "paper PMC12613623", "binders": {"B1": {"name": "murine ATP5O recombinant protein (natural protein)", "chain": "FAKLVRPPVQVYGIEGRYATALYSAASKEKKLDQVEKELLRVGQLLKDPKVSLAVLNPYIKRTVKVKSLNDITKREKFSPLTANLMNLLAENGRLGNTQGIISAFSTIMSVHRGEVPCTVTTASPLDDAVLSELKTVLKSFLSPNQILKLEIKTDPSIMGGMIVRIGEKYVDMSAKSKIQKLSKAMREML"}}, "key": {"[1]": {"biological_target": "T1, murine SIRT3 recombinant protein (mouse)", "T1 sequence (Q8R104 whole entry, looked up)": "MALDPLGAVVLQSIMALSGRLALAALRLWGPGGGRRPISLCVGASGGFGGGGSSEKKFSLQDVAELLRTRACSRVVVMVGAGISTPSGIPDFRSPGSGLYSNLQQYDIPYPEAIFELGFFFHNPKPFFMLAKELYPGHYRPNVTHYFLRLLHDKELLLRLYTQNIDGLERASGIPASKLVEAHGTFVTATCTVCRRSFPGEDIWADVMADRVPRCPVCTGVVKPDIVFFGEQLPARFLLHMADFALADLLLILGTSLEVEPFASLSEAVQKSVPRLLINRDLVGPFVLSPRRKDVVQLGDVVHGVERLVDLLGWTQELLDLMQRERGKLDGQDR", "test": "ITC; Nano ITC (TA Instruments); ATP5O titrated into a SIRT3-containing solution at 25 °C; NanoAnalyze"}, "[2]": {"biological_target": "T1, murine SIRT3 recombinant protein (mouse)", "test": "SPR; SIRT3 immobilised on a carboxyl sensor chip; ATP5O diluted in running buffer and injected from low to high concentrations; kinetics analysed with Trace Drawer"}}, "data": [{"binder": "B1", "values": [{"measurement": "Kd", "setting": "[1]", "result": 1310, "unit": "nM"}, {"measurement": "Kd", "setting": "[2]", "result": 0.0653, "unit": "nM"}, {"measurement": "koff", "setting": "[2]", "result": "5.54e-08", "unit": "s⁻¹"}, {"measurement": "kon", "setting": "[2]", "result": 850, "unit": "M⁻¹ s⁻¹"}]}]}
